Test results reported in US20200199567A1, “METHODS FOR SELECTION AND EXPANSION OF T CELLS EXPRESSING PD-1” (MEDIMMUNE, LLC, priority 2018, published 2020).
Blank lines part the entries; values can stand above or below the molecule they belong to.

Tests used:
[1] = tested on: PD-1 expression in peripheral blood; assay: PD-1 expression in peripheral blood after anti-CTLA-4 pre-treatment, Taqman qRT-PCR; assay type: in vivo, human
Experimental: The effect of anti-CTLA-4 antibody (tremelimumab) pre-treatment on PD-1 expression in peripheral blood was tested by Taqman qRT-PCR.

[2] = tested on: PD-1 expressing T cells; assay: Magnetic bead enrichment (selection) of PD-1 expressing T cells with biotinylated anti-PD-1 antibody; assay type: cell-based, human; conditions: 4° C.
Experimental: Donor blood was obtained in the form of human peripheral blood through standard leukapheresis or blood draw protocols. The red blood cells were removed from the donor blood by centrifugation protocols known in the art. Briefly, the peripheral blood was centrifuged, the supernatant discarded, the pellet was resuspended in ammonium chloride potassium (ACK) buffer, the ACK pellet suspension was incubated at room temperature, and the cells were washed twice in wash buffer to produce a cell pellet.
Enrichment of the PD-1 expressing cells was then performed. The washed cell pellet was resuspended in wash buffer and cell count determined. Wash buffer was added to bring the cell density to 100×10^6 cells per mL. 1 μg/mL MEDI3097 antibody was added to the cells to produce an antibody-cell mixture comprising cells and MEDI3097 antibody. The antibody mixture was incubated at 4° C. for 15 minutes and then centrifuged and washed twice with wash buffer. Wash buffer was added to bring cell density to 125×10^6 cells per mL. Anti-biotin beads were then added to the cells at a concentration of 2 mL beads per 1 billion cells to produce a bead mixture. […]
Enrichment of PD-1 expressing T cells was performed after red blood cells were removed from leukapheresis products. The washed cell pellet was resuspended in wash buffer and cell count determined. […]

[3] = biological target: PD-1 (Homo sapiens, UniProt Q15116); assay: Binding affinity of anti-PD-1 antibody
Chain of PD-1 (Q15116 25-288): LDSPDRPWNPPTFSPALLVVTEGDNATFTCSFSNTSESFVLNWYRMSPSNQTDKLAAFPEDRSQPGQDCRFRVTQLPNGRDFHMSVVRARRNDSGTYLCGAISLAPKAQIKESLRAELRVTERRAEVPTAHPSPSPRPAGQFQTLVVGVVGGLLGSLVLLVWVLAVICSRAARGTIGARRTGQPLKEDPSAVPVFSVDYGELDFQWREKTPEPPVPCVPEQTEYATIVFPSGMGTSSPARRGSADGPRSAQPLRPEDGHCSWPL

Molecule: tremelimumab: anti-CTLA-4 antibody
overall survival (OS) of patients with induced PD-1 expression ([1]; high responder group versus <1.5 fold group, clinical trial NTC02527434): improved overall survival
increase PD-1 expression in peripheral blood ([1]; in a group of patients, after 9-10 days): > 1.5 fold

binding affinity [3]: low binding affinity
B1: MEDI0680: anti-PD-1 antibody (antibody, V domains shown)
VH: EVQLVESGGGLVQPGGSLRLSCAASGFTFSDYGMHWVRQAPGKGLEWVAYISSGSYTIYSADSVKGRFTISRDNAKNTLYLQMSSLRAEDTAVYYCARRGYGSFYEYYFDYWGQGTTVTVSS
VL: QIVLTQSPATLSLSPGERATLSCSASSSVSYMYWYQQKPGQAPRLLIYLTSNRATGIPARFSGSGSGTDYSSTLTISSLEPEDFAVYYCQQWSSNPFTFGQGTKLEIK
antibody concentration at which impact on PD-1 expression level plateaued [2]: around 5.0 μg/mL

binding affinity [3]: high binding affinity
B2: LO115: anti-PD-1 antibody (antibody)
heavy: EVQLVESGGGLVQPGGSLRLSCAASGFTFSDYGMHWVRQAPGKGLEWVAYISSGSYTIYSADSVKGRFTISRDNAKNSLYLQMNSLRAEDTAVYYCARRAPNSFYEYYFDYWGQGTTVTVSSASTKGPSVFPLAPSSKSTSGGTAALGCLVKDYFPEPVTVSWNSGALTSGVHTFPAVLQSSGLYSLSSVVTVPSSSLGTQTYICNVNHKPSNTKVDKRVEPKSCDKTHTCPPCPAPEFEGGPSVFLFPPKPKDTLMISRTPEVTCVVVDVSHEDPEVKFNWYVDGVEVHNAKTKPREEQYNSTYRVVSVLTVLHQDWLNGKEYKCKVSNKALPASIEKTISKAKGQPREPQVCTLPPSREEMTKNQVSLSCAVKGFYPSDIAVEWESNGQPENNYKTTPPVLDSDGSFFLVSKLTVDKSRWQQGNVFSCSVMHEALHNHYTQKSLSLSPGK
light: QIVLTQSPATLSLSPGERATLSCSASSKHTNLYWSRHMYWYQQKPGQAPRLLIYLTSNRATGIPARFSGSGSGTDFTLTISSLEPEDFAVYYCQQWSSNPFTFGQGTKLEIKRTVAAPSVFIFPPSDEQLKSGTASVVCLLNNFYPREAKVQWKVDNALQSGNSQESVTEQDSKDSTYSLSSTLTLSKADYEKHK
